Results from the nanobody polyreactivity screen of Harvey et al. (2022).

Experiment: yeast display, Sf9 membrane polyspecificity reagent, FACS + sequencing; frameworks hold sequencing errors
Outline: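 Nanobodies from a synthetic yeast display library (Saccharomyces cerevisiae BJ5465), induced 36–48 hours with galactose, were stained 1 hour at 4 °C with 10% biotinylated, detergent-solubilized Sf9 membrane reagent, enriched on streptavidin microbeads, then FACS-sorted. Anti-HA (expression) and streptavidin (reagent binding) fluorescence set low and high (top ~1%) gates. Polyreactivity labels come from the gate of origin. Genes were colony-PCR amplified, MiSeq 2 × 250 sequenced and filtered by CDR length.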

## QVQLVESGGGLVQAGGSLRLSCAASGRNFKYNAMGWYRQAPGKERELVAVITSGGSTYYADSVKGRFTISRDNAKNTVYLQMNSLKPEDTAVYYCAKKYYKVHKFDYWGQGTQVTVSS
  polyreactivity (PSR sort gate): low polyreactivity

## QVQHVDSGGCLVQAGGTLRLSCAASGFTLWAYAMGWYRQAPGKEREFVAVISRSDGSTYYADSVKGRFTISRENAKNTVYLQMNSLKPEDSAVYYCAAKHRGAKYDYWGQGTQVTVSS
  polyreactivity (PSR sort gate): low polyreactivity

## QVQLVESGGGLVQAGGSLRLSCAASGRTFHSYAMGWYRQAPGKEWELVAGISWGGTRTTYADSVKGRFTISRDNSKNTVYLQMNSLKPEDTAVYYCNAVYYALGRSPPDYGYWGQGTQVTVSS
  polyreactivity (PSR sort gate): low polyreactivity

## QVQLVESGGGLVQAGGSLRLSCAASGFTFSAYAMGWYRQAPGKERELVASITRSGGSTYYADSVKGRFTISRDNAKNTVYLQMNCLKPEDTAVFYCAKSDRPWWGYYYQFDYWGQGTQVSVSS
  polyreactivity (PSR sort gate): low polyreactivity

## QVQLVESGGGLVQAGGSLRLSCAASGSTFPWNAMGWYRQAPGKERELVAAISSGGSTNYADSVKGRFTISRDNAKNTVYLQMNSLKPEDTAVYYCNAYYWSDSRGKYDYWGQGTQVTVSS
  polyreactivity (PSR sort gate): low polyreactivity

## QVQLVESGGGLVQAGGSLRLSCAASGFILLDNGMGWYREAPGKERELVAAITYSGDTTYYADSVKGRFTISRDNAKNTVYLQMNSLKPEDTAVYYCNADNDKWTTGHDYWGQGTQVTVSS
  polyreactivity (PSR sort gate): low polyreactivity

## QVQLVESGGGLVQAGGSLRLICAASGITFTGYAMGWYREAPGKEREVVAPISKRGARTYYADSVKGRFTISRDNAKHTVYVQMNSLQPEDTAVYYCAVRRWGYWTGYRGLDYDYWGQGTQVTVSS
  polyreactivity (PSR sort gate): high polyreactivity

## QVQLVESGGGLVQPGGSLRLSCAASGRTSEIYTMGWYRPAPGKERELVASINTNSADSVKGRFTISRDNAKNTVYLQMNSLKPEDTAVYYCNADDTIEFNYWGQGTQVTVSS
  polyreactivity (PSR sort gate): low polyreactivity

## QVQLVESGGGLVQAGGSLRISCAASGFTFRNYAMGWYRQAPGKEREFVASISFAGGRTYYADSVKGRFTISRDNAKNTVYLQMNSLKPEDTAVYYCAKKSYSKYDYWGQGTQVTVSS
  polyreactivity (PSR sort gate): high polyreactivity

## QVQLVESGGGLVQAGGSLRLSCAASGNIFLYYAMGWYRKAPGKERELVADIDSSGASTYYADSVKGRFTISRDNAKNTVYLQMNSLKPEDTAVYYCPAEFHWWYAGYDYGYWGLGTQVTVSS
  polyreactivity (PSR sort gate): low polyreactivity

## QVQLQESGGGLVQAGVSLRLSCAASGSIFADVQMGWYRQAPGKERELVASIIFRGTTTYYADSVKGRFTISRDNAKNTVYLQMSSLKPEDTAVYYCAVGRSEGGDFAYWGQGTHVTVSS
  polyreactivity (PSR sort gate): low polyreactivity

## QVQLVESGGGLVQAGGSLRLSCAASGFTFTYNAMGWYRQEPGKERELVAAITANGGGTNYADSVKGRFTISRDNAKNTVYLQMNSLKPEDTAVYYCAATIVVAVFESLGFYWYTEENYWGQGTLVTVSS
  polyreactivity (PSR sort gate): low polyreactivity

## QVQLVESGGCLVQAGGSLRLSCAASGRTFGRNAMGWYRKAPGKERDLVAAISRSGASTYYADSVKGRFTISRDNAKITVYLQMNSLKEEDTAVYYCAKDVWGSRYAYDYWGQGTQVTVSS
  polyreactivity (PSR sort gate): low polyreactivity

## QVQLVESGGGLVQAGGSLRLSSAASGLTFQEYAMGWYRQAPGKESELVAAISWSGGSTYYADSVKGRFTISRDNAKNTVYLQMNSLKPEDTAVYYCAAEAYEEYITGWYAYDYWGQGTQVTVSS
  polyreactivity (PSR sort gate): high polyreactivity

## HVQLEESGGGEVQAGGSLRLTCAASGLIYTTYAMGWYRPAPGTERELVAAISRRGSRTYYADSVKGRFTISRDNAKNTVYLQMNSLNPEDTAVYYCNALTGSFKTDSFDYWGQGTQVTVSS
  polyreactivity (PSR sort gate): high polyreactivity

## QVQLVESGGGLVQAGGSLRLSCAASGITFRRYAMGWYRKAPGTERELVATITRGDNTYYADSVKGRFTISRDNAKNTVYLQMNSLKPEDTAVYYCAKGWPTDDYDYWGQGTQVTVSS
  polyreactivity (PSR sort gate): high polyreactivity

## QVQLVESGGGLVQAGGSLRLSCAASGRTFPFYAMGWYRQAPGKERELVAAINSGGITNYADSVKGRFTISRDNAKNTVYLQMNSLKPEDTAVYYCAAKTAFYRERGYWGQGTQVTVSS
  polyreactivity (PSR sort gate): low polyreactivity

## QVQLVESGGGLVQAGGSLRLSCADSGRIFYSYTRGWYRPAPGKERELVAAIRKSGGRTYYADSVKGRFTISRDNAKNTVYLQMNSLKPEDTAVYYCATTNYELSYYYWGQGTQVTVSS
  polyreactivity (PSR sort gate): high polyreactivity

## QVQLVESGGGLVHAGGSLRLSCAASGSILARYARGWYRQEPGKERELVAAISSRGGSTYYADSVKGRFTISRDYAKNTVYLQMNSLKPEDTAVYYCAASVYLQVEYDYWGQGTQVTVSS
  polyreactivity (PSR sort gate): low polyreactivity

## QVQLVESGGGLVQAGGSLRLTCAASGRIFGYYAKGWYSQAPGKERELGATITFGGGSTCYADSVKGRFTISRDNAKKTVYLQMNSLKPEDTAVYYCAADSGYLGIYGDEYSWGQGTQVTVSS
  polyreactivity (PSR sort gate): low polyreactivity

## QVQLVESGGGLVQAGGSLRLSCAPSGISIIGYAMGWYRQAPGKVRELVASIDSGGITNYADSVKGRFTISRDNAKNTVYLQMNSLKPEDTAVYDCAARVAYFGGPYYSWGEGTQVTVSS
  polyreactivity (PSR sort gate): high polyreactivity

## QVQLVESGGGLVQAGGSLRLSCAASGRIFNYNAMGWYRQAPGKERELVAAISSGGDTYYADSVKGRFTISRDNAKNTVYLQINSLKPEDTAVYYCGSTFVVKGTRFGYWGQGTQVTVSS
  polyreactivity (PSR sort gate): high polyreactivity

## QVQLVESGGGLVQAGGSLRLSCAASGSIFYFNAMGWYRRAPGKERELVAGISARGGSTYYADSVKGRFTISRDHAKNTVYIQMNSLKPEDTAGYYCAAYGTTRSRKRAFAWWGYDYWGQGTQVTVSS
  polyreactivity (PSR sort gate): low polyreactivity

## QVQLVESGGGLVQAGGSLRLSCAASGRTFAYYAMGWYRPAPGKERELVATITRSGGITSYADSVKGRFTISRDNAKNTVYLQMSSLKPADTAVYYCNTGYSNRLHDYWGQGTQVTVSS
  polyreactivity (PSR sort gate): high polyreactivity

## QVQLVETGGGLVQAGGSLRLSCAASGITFSDNAMGWYIQAPVKERELVADISYGGGNTYYADSVQGRFTISRDNAKYTVYLQMNSLKPEDTAVYYCAAVYYFLWYGYYLALDYWGQGTQVTVSS
  polyreactivity (PSR sort gate): high polyreactivity

## QVQLVESGGGLVHAGGSLRLSCASSGSTFAQYALGWYRPAPGKDREFVAAITRGGGRTYYADSVNGRFTISRDNAKYSVYLQMNSLKPEVTAVYYCNAVYRYYPFDYWGQGTQVTVSS
  polyreactivity (PSR sort gate): high polyreactivity

## LVQHVESGGGIVQAGGSLRLTCAASGSIFASYAMGWYRLAPGKEREFVAAISRRSGSTYYSDSVKGRFTISRDYAKNTVYLQLKSLKPEDTAVYDCAGALYYGYDHYNYWGQGTQVTVSS
  polyreactivity (PSR sort gate): high polyreactivity

## QVQLVESGGGLVQAGGSLRLSCAASGRIFLRYALGWYRQAPGKEREWVAVITWSGGSTNYADSVKGRFTISRDNAKNTVYLQMNSLKPEDTAVYYCAVDNTGRSWPYDYWGQGTQVTVSS
  polyreactivity (PSR sort gate): low polyreactivity

## QVQLVESGGGLVQAGGSLRLSCAASGFTFRYYAMGWYRQAPGKEREFVAAISWDGGITYYADSVKGRFTISRDNAKNTVYLQMNSLKPEDTAVYYCAADVIWESDYWGQGTQVTVSS
  polyreactivity (PSR sort gate): high polyreactivity

## QVQLVESGGGLVQAGGSHRLSCDASGRIFGPYAMGWYRQAPGKESELVATISWRGARTYYADSVKGRFTISRDNAKNTVYLQMNSLKPEDTAVDYCAATFYYSARFDYWGQGTQVTVSS
  polyreactivity (PSR sort gate): high polyreactivity

## QVQLVESGGGLVQAGGSLRLSCAASGSTFDVYAMGWYRQAPGKERELVASISITDGSTYYADSVKGRFTISRDNAKNTVYLPMNSLKPEDTAVYYCNAQYGGSYVEYDYWGQGTQVTVSA
  polyreactivity (PSR sort gate): low polyreactivity

## QVQLVESGGGLVQAGGSLRLSCAASGFISGFYGMGWYIQAPGKEREFVAAIDFIDGDTYYADSVKGRFTISRDKAKNTVYLQMNSLKPEDTAVYYCAADGSFCQFDYWGQGTQVTVSS
  polyreactivity (PSR sort gate): low polyreactivity

## QVQLVESGGGLVQAGGSLRLSCAASGIIFRYYAMGLYRQAPGKERELVAAITTGGSTYYADSVKGRFTISRDNAKNTVYLQMNSLKPEDTAVYYCAAQILVRHIPYYYWGQGTQVTVSS
  polyreactivity (PSR sort gate): high polyreactivity

## QVQLVESGGGLVQAGGSLRLSCAASGLIFRDNTMGWYRQAPGKERELVAAINSGGGTSYADSVKGRFTISRDNAKNTVYLQMNSLKPEDTAVYYCAAAWWPYRYGTYYSQYDYWGQGTQVTVSS
  polyreactivity (PSR sort gate): low polyreactivity

## QVQLVESGGGLVQAGGSLRLSCAASGSIIHTNTMGWYRQAPGKERELVAAISGGSTYYADSVKGRFTISRDNAKNTVYLQMNSLKPEDTAVYYCAAGWSVWYQDFDYWGQGSQVTVSS
  polyreactivity (PSR sort gate): high polyreactivity

## QVKLVESGGGLVQAGCRLRLSCAASGFICGYNAMGWYRQAPGKERELVAAIDWSGTSTYYADSVKWRFTISRDNAKNTVYLQMNSLKPEDSAVYYCAADTSTWDHTRGYDYWGQGTQVTVSS
  polyreactivity (PSR sort gate): high polyreactivity

## QVQLVESGGVLVQAGGSLRLSCAASGRIFSYYAMGWYRQAPGKERELVARITSRGASTYYADSVKGRFTISRDNAKNTVYLQMNSLKPEDTAVYYCAARKDSTRRFDYWGQGTQVTVLS
  polyreactivity (PSR sort gate): high polyreactivity

## QVQLVESGGGVVQAGGSLRLSCAASGSTFYAYAMGWYRQAPGKERELVAGISKRVGRTYYADSVKGRFTISRDNAKNTVYLQRNSLKPEDTAVYYCAAQFYLFYEYEYWGQGTQVTVSS
  polyreactivity (PSR sort gate): high polyreactivity

## QVQLVESGGGLVQAGGSLRLSCAASGFTFIRYAMGWYRQAPGKERELVATITRRGGSTYYADSVKGRFTISRDNAKNTVYLQMNSLKPEDTAVYYCNRDYVTYGKYYYWGQGTQVTVSS
  polyreactivity (PSR sort gate): high polyreactivity

## QVQLVESGGGLVQAGGSLRLSCAASGRIFPFYVMGWYRQAPGKERELVATINWSGGSTYYADSVKGRFTISRDNAKNTVYLQMNSLKPEDTAVYYCNAAPSDDYDYWGQGTQVTVSS
  polyreactivity (PSR sort gate): low polyreactivity

## QVQLVESGGGLVQAGGSLRLSCAASGITFWHNTMGWYRQAPGKERELVAAISWTGGRTYYADSVKGRFTISRDNAKNSVYLQMNSLKPEDTPVYYCAADFSWTPSGNYDSWGQGTQVTVSS
  polyreactivity (PSR sort gate): low polyreactivity

## QVQLVESGGGLVQAGGSLRLSCAASGSIFAGYAMGWYRKAPGKERELVAVISSTGSTYYADSVKGRFTISRDNAKNTVYLQMNSLKTEDTAVYYCNAYRYWSPGYDYWGQGTQVTVSS
  polyreactivity (PSR sort gate): low polyreactivity

## QVQLVESGGGLVQAGGSLRLSCAASGRTFYDNTMGWYRQAPGKERELVAAISRGGSTYADSVKGRFTISRDNAKNTVYLELNSLKPEDTAVYYSNKRSITTEYGYWGQGTQVTVSS
  polyreactivity (PSR sort gate): low polyreactivity
